Biological target: Insulin from bovine pancreas, P01317
Sequence (P01317 85-105, chain 1 of 2): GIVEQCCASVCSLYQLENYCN
Sequence (P01317 25-54, chain 2 of 2): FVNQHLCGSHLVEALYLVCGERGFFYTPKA

B1: Protein disulfide isomerase from Thermoascus crustaceus (SEQ ID NO: 1) (protein)
chain: ADAESDVRSLKKDTFDDFIKEHDLVLAEFFAPWCGHCQALAPEYEAAASELKEKNIPLAKVDCTEEADLCKEHGVEGYPTLKVFRGLDSVKPYPGARKSAAIVSYMVKQSLPAVSTVTKENLEEFKTMDKVVIIGYIAPDDKTSNETFTAFADSKRDDYLFAATNDAALAKAEGVKQPSIVLYKDFDEKKDVFDGKFDQETMLSWVKTASTPLVGEIGPETYAGYMSAGIPLAFIFAETPEERQKLAADFKPIAEKHRGAINIVTIDAKAFGAYAGNLNLDPQKFPCFAIHDTVKNAKFPYDQSKEVNAKDIGQFVQEVLDGKVEPSIKSEPIPETQEGSVTVVVAHSYRELVIDNDKDVLLEFYAPWCGHCKALAPKYEELGRLYAENPDLASKVTVAKIDATANDVPDEIQGFPTIKLFPAGAKDSPVDYAGSRTVEDLANFIKENGKHKVDALSAATAKPEQGGDVTSTPSISSETTAETAAPTTDGSEHDEL
B1 was tested, and the “Insulin reduction assay with DTT, MALDI MS (worded result)” value was “in the presence of the PDI, a significant amount of the cystines are reduced resulting in separation of the insulin into the A peptide and B peptide”, the “Insulin reduction assay with sulfite, MALDI MS (worded result)” value was “in the presence of the PDI, a significant amount of the cystines are reduced resulting in separation of the insulin into the A peptide and B peptide” and the Ratio (A chain): mass peak area of A peptide chain to intact insulin, MALDI MS; 2.5 µg/mL PDI, 0 mM DTT was 0.006. It also gave a Ratio (A chain): mass peak area of A peptide chain to intact insulin, MALDI MS; 2.5 µg/mL PDI, 0 mM sulfite of 0.009, a Ratio (A chain): mass peak area of A peptide chain to intact insulin, MALDI MS; 2.5 µg/mL PDI, 2 mM DTT of 0.035 and a Ratio (A chain): mass peak area of A peptide chain to intact insulin, MALDI MS; 2.5 µg/mL PDI, 2.9 mM sulfite of 0.027. The Ratio (A chain): mass peak area of A peptide chain to intact insulin, MALDI MS; 5 µg/mL PDI, 0 mM DTT was 0.005, the Ratio (A chain): mass peak area of A peptide chain to intact insulin, MALDI MS; 5 µg/mL PDI, 0 mM sulfite was 0.007 and the Ratio (A chain): mass peak area of A peptide chain to intact insulin, MALDI MS; 5 µg/mL PDI, 2 mM DTT was 0.07. It also gave a Ratio (A chain): mass peak area of A peptide chain to intact insulin, MALDI MS; 5 µg/mL PDI, 2.9 mM sulfite of 0.05, a Ratio (A chain): mass peak area of A peptide chain to intact insulin, MALDI MS; 10 µg/mL PDI, 0 mM DTT of 0.003 and a Ratio (A chain): mass peak area of A peptide chain to intact insulin, MALDI MS; 10 µg/mL PDI, 0 mM sulfite of 0.008. It also gave a Ratio (A chain): mass peak area of A peptide chain to intact insulin, MALDI MS; 10 µg/mL PDI, 2 mM DTT of 0.172, a Ratio (A chain): mass peak area of A peptide chain to intact insulin, MALDI MS; 10 µg/mL PDI, 2.9 mM sulfite of 0.104 and a Ratio (B chain): mass peak area of B peptide chain to intact insulin, MALDI MS; 2.5 µg/mL PDI, 0 mM DTT of 0.01. It also gave a Ratio (B chain): mass peak area of B peptide chain to intact insulin, MALDI MS; 2.5 µg/mL PDI, 0 mM sulfite of 0.019, a Ratio (B chain): mass peak area of B peptide chain to intact insulin, MALDI MS; 2.5 µg/mL PDI, 2 mM DTT of 0.109 and a Ratio (B chain): mass peak area of B peptide chain to intact insulin, MALDI MS; 2.5 µg/mL PDI, 2.9 mM sulfite of 0.055. It also gave a Ratio (B chain): mass peak area of B peptide chain to intact insulin, MALDI MS; 5 µg/mL PDI, 0 mM DTT of 0.009, a Ratio (B chain): mass peak area of B peptide chain to intact insulin, MALDI MS; 5 µg/mL PDI, 0 mM sulfite of 0.018 and a Ratio (B chain): mass peak area of B peptide chain to intact insulin, MALDI MS; 5 µg/mL PDI, 2 mM DTT of 0.185. It also gave a Ratio (B chain): mass peak area of B peptide chain to intact insulin, MALDI MS; 5 µg/mL PDI, 2.9 mM sulfite of 0.083, a Ratio (B chain): mass peak area of B peptide chain to intact insulin, MALDI MS; 10 µg/mL PDI, 0 mM DTT of 0.007 and a Ratio (B chain): mass peak area of B peptide chain to intact insulin, MALDI MS; 10 µg/mL PDI, 0 mM sulfite of 0.017. It also gave a Ratio (B chain): mass peak area of B peptide chain to intact insulin, MALDI MS; 10 µg/mL PDI, 2 mM DTT of 0.335 and a Ratio (B chain): mass peak area of B peptide chain to intact insulin, MALDI MS; 10 µg/mL PDI, 2.9 mM sulfite of 0.17.

Reference: patent US20240307885
